Several values for one entry are separate records, joined by “and”; a condition that tells them apart may be missing. Equal entries are not always repeated.
Assays:
[1] = target: DtpA, A-type dye-decolorizing peroxidase from Streptomyces lividans (Streptomyces lividans); assay: AUC; sedimentation velocity, absorbance at 410 nm, 40,000 rpm, 20°C, 50 mM HEPES pH 7.0, 100 mM NaCl, protein 0.75-0.85 μM, c(S) model in SEDFIT
[2] = target: DtpB, B-type dye-decolorizing peroxidase from Streptomyces lividans (Streptomyces lividans); assay: cryo-EM structure; single particle, Titan Krios 300 kV, DtpB ~6 mg/mL with 8 mM CHAPSO, D3 symmetry imposed, 3.02 Å map of the hexamer
[3] = target: DtpB, B-type dye-decolorizing peroxidase from Streptomyces lividans (Streptomyces lividans); assay: AUC; sedimentation velocity, absorbance at 410 nm, 40,000 rpm, 20°C, 50 mM HEPES pH 7.0, 100 mM NaCl, protein 0.75-0.85 μM, c(S) model in SEDFIT
[4] = target: DtpB, B-type dye-decolorizing peroxidase from Streptomyces lividans (Streptomyces lividans); assay: cryo-EM structure; single particle, Talos Arctica 200 kV, DtpB ~6 mg/mL with 8 mM CHAPSO, C1 symmetry, low resolution maps of quasi-hexamer (14.5 Å) and dodecamer (13.4 Å)
[5] = target: DtpAa, A-type dye-decolorizing peroxidase from Streptomyces lividans (Streptomyces lividans); assay: AUC; sedimentation velocity, absorbance at 410 nm, 40,000 rpm, 20°C, 50 mM HEPES pH 7.0, 100 mM NaCl, protein 0.75-0.85 μM, c(S) model in SEDFIT

Substance: DtpA, A-type dye-decolorizing peroxidase from Streptomyces lividans (enzyme)
- proportion of the sedimenting species (ratio), species 1, dimer [1]: 76
- proportion of the sedimenting species (ratio), species 2, tetramer [1]: 13
- stoichiometry N [1]: 2 and 4

Substance: DtpB, B-type dye-decolorizing peroxidase from Streptomyces lividans (enzyme)
- stoichiometry N [2]: 6
- proportion of the sedimenting species (ratio), species 1, dimer [3]: 2.5
- proportion of the sedimenting species (ratio), species 2, hexamer [3]: 82
- proportion of the sedimenting species (ratio), species 3, dodecamer [3]: 10
- stoichiometry N [4]: 12

Substance: DtpAa, A-type dye-decolorizing peroxidase from Streptomyces lividans (enzyme)
- stoichiometry N [5]: 2
